# Reference: US7884199B2, “HCV NS3-NS4 protease resistance mutants” (priority 2003, dated 2011)
# “And” between values parts separate entries of the source, which are not always exact repeats. Equal values may be shown once.
# Key:
# [1] = system: wild-type HCV Con1 sub-genomic replicon cells; test: HCV replicon cell assay, 48-hour; type: cell-based, Hepatitis C virus; conditions: 48-hour assay
# Description: (§1) Cells containing hepatitis C virus (HCV) replicon were maintained in DMEM containing 10% fetal bovine serum (FBS), 0.25 mg per ml of G418, with appropriate supplements (media A).
# (§2) On day 1, replicon cell monolayer was treated with a trypsin:EDTA mixture, removed, and then media A was diluted into a final concentration of 100,000 cells per ml with. 10,000 cells in 100 ul were plated into each well of a 96-well tissue culture plate, and cultured overnight in a tissue culture incubator at 37° C.
# On day 2, compounds (in 100% DMSO) were serially diluted into DMEM containing 2% FBS, 0.5% DMSO, with appropriate supplements (media B). […]
# (§3) A Taqman real-time RT-PCR quantification assay was set up with two sets of specific primers and probe. […] Total RNA extractants from treated HCV replicon cells was added to the PCR reactions for quantification of both HCV and BVDV RNA in the same PCR well. […] The level of HCV RNA in each well was calculated according to a standard curve run in the same PCR plate. The percentage of inhibition or decrease of HCV RNA level due to compound treatment was calculated using the DMSO or no compound control as 0% of inhibition. The cytotoxicity of the compounds was measured using a mitochondrial enzyme-based cell viability assay, CellTiter 96 AQueous One Solution Cell Proliferation Assay (Promega).
# [2] = system: wild type HCV replicon cells (high efficiency Con1 replicon); test: HCV replicon cell assay, 48-hour; type: cell-based, Hepatitis C virus; conditions: read-out: IC50
# Excerpt: (§4) During the course of generating of the HCV sub-genomic replicon stable cell lines, several different patterns of adaptive mutations were identified. One pattern has three substitutions in the HCV nonstructural proteins, which were introduced into the original pBR322-HCV-Neo plasmid by site-directed mutagenesis to generate the second-generation sub-genomic replicon plasmid, pBR322-HCV-Neo-mADE. When the T7 run-offRNA transcripts from the Sca I-linearized pBR322-HCV-Neo-mADE plasmid were electroporated into Huh7 cells, stable replicon cell colonies were formed at a much higher efficiency than the original Con1 replicon RNA. The resistance mutations identified in this study were introduced into the pBR322-HCV-Neo-mADE replicon plasmid by site-directed mutagenesis. Stable replicon cell lines were generated using the T7 transcripts derived from either wild type pBR322-HCV-Neo-mADE or the ones with the resistance mutations.
# as §1
# On day 1, replicon cell monolayer was treated with a trypsin:EDTA mixture, removed, and then media A was diluted into a final concentration of 100,000 cells per ml with. […]
# as §3, with “(Promega). […]” for “(Promega).”
# A156S HCV replicon cells = test: HCV replicon cell assay, 48-hour; type: cell-based, Hepatitis C virus; conditions: read-out: IC50
# Excerpt: as §4, §1, §2
# (§5) On day 2, compounds (in 100% DMSO) were serially diluted into DMEM containing 2% FBS, 0.5% DMSO, with appropriate supplements (media B). The final concentration of DMSO was maintained at 0.5% throughout the dilution series.
# (§6) Media on the replicon cell monolayer was removed, and then media B containing various concentrations of compounds was added. Media B without any compound was added to other wells as no compound controls.
# (§7) Cells were incubated with compound or 0.5% DMSO in media B for 48 hours in a tissue culture incubator at 37° C. At the end of the 48-hour incubation, the media was removed, and the replicon cell monolayer was washed once with PBS and stored at −80° C. prior to RNA extraction.
# (§8) Culture plates with treated replicon cell monolayers were thawed, and a fixed amount of another RNA virus, such as Bovine Viral Diarrhea Virus (BVDV) was added to cells in each well. RNA extraction reagents (such as reagents from RNeasy kits) were added to the cells immediately to avoid degradation of RNA. Total RNA was extracted according the instruction of manufacturer with modification to improve extraction efficiency and consistency. Finally, total cellular RNA, including HCV replicon RNA, was eluted and stored at −80° C. until further processing.
# (§9) A Taqman real-time RT-PCR quantification assay was set up with two sets of specific primers and probe. One was for HCV and the other was for BVDV. Total RNA extractants from treated HCV replicon cells was added to the PCR reactions for quantification of both HCV and BVDV RNA in the same PCR well. Experimental failure was flagged and rejected based on the level of BVDV RNA in each well. The level of HCV RNA in each well was calculated according to a standard curve run in the same PCR plate. The percentage of inhibition or decrease of HCV RNA level due to compound treatment was calculated using the DMSO or no compound control as 0% of inhibition. The cytotoxicity of the compounds was measured using a mitochondrial enzyme-based cell viability assay, CellTiter 96 AQueous One Solution Cell Proliferation Assay (Promega).
# (§10) Four HCV sub-genomic replicon stable cell lines, including the wild type (wt), and three mutants, A156S, D168V and D168A, were generated using the T7 RNA runoff transcripts from the corresponding high efficiency Con1 replicon plasmids.
# D168A HCV replicon cells = test: HCV replicon cell assay, 48-hour; type: cell-based, Hepatitis C virus; conditions: 48-hour assay
# Excerpt: as §4, §1, §2, §5, §6, §7, §8, §9, §10
# D168V HCV replicon cells = test: HCV replicon cell assay, 48-hour; type: cell-based, Hepatitis C virus; conditions: D168V replicon cells, 48-hour assay; read-out: Replicon IC50
# Excerpt: as §4, §1, §2, §5, §6, §7, §8, §9, §10
# A156T HCV replicon cells = test: HCV replicon cell assay, 48-hour; type: cell-based, Hepatitis C virus; conditions: 48-hour assay
# Excerpt: as §4, §1, §2, §5, §6, §7, §8, §9
# (§11) Table 6 summary: Three HCV sub-genomic replicon stable cell lines, including the wild-type, and two mutants, A156T and A156V, were generated using the T7 RNA runoff transcripts from the corresponding high efficiency Con 1 replicon plasmids.
# A156V HCV replicon cells = test: HCV replicon cell assay, 48-hour; type: cell-based, Hepatitis C virus
# Excerpt: as §4, §1, §2, §5, §6, §7, §8, §9, §11
# [3] = system: series A (VX-950-resistant) replicon cells; test: HCV replicon cell assay, 48-hour; type: cell-based, Hepatitis C virus; conditions: series A (VX-950-resistant) replicon cells
# [4] = system: series C (double-resistant) replicon cells; test: HCV replicon cell assay, 48-hour; type: cell-based, Hepatitis C virus; conditions: series C replicon cells at day 52
# Description: Culture plates with treated replicon cell monolayers were thawed, and a fixed amount of another RNA virus, such as Bovine Viral Diarrhea Virus (BVDV) was added to cells in each well. […]
# A Taqman real-time RT-PCR quantification assay was set up with two sets of specific primers and probe. […] Total RNA extractants from treated HCV replicon cells was added to the PCR reactions for quantification of both HCV and BVDV RNA in the same PCR well. […] The level of HCV RNA in each well was calculated according to a standard curve run in the same PCR plate. The percentage of inhibition or decrease of HCV RNA level due to compound treatment was calculated using the DMSO or no compound control as 0% of inhibition. The cytotoxicity of the compounds was measured using a mitochondrial enzyme-based cell viability assay, CellTiter 96 AQueous One Solution Cell Proliferation Assay (Promega). […]
# [5] = Substrate kinetic parameters of NS3 serine protease domains with KK-NS4A peptide and FRET substrate; type: biochemical, Hepatitis C virus
# Description: Enzymatic activity was determined using a modification of the assay described by Taliani et al., [Taliani et al., Anal. Biochem., 240, pp. 60-67 (1996)]. An internally quenched fluorogenic peptide (FRET substrate), Ac-DED(EDANS)EEαAbuψ[COO]ASK (DABCYL)-NH2, was purchased from AnaSpec Incorporated (San Jose, Calif.). The assay was run in a continuous mode in a 96-well microtiter plate format. The buffer was composed of 50 mM HEPES (pH 7.8), 100 mM NaCl, 20% glycerol, 5 mM DTT, and 25 μM KK4A peptide ([…]; SEQ ID NO:5). The KK4A peptide represents the central region of the NS4A cofactor from genotype 1a with lysine residues added for improved solubility [Landro et al. Biochemistry, 36, pp. 9340-9348 (1997)]. The reaction was initiated by the addition of the FRET substrate after a 10-min pre-incubation of the buffer components with 2 nM of the NS3 protease at room temperature. The reaction was monitored at 30° C. for 20 min using a Molecular Devices fmax fluorometric plate reader. The filters for excitation and emission wavelengths were 355 nm and 495 nm, respectively. For determination of substrate kinetic parameters, concentrations of the FRET peptide were varied from 0.5-7.0 μM. Inter-molecular quenching was not observed in this range. The substrate kinetic parameters, Km and Vmax, were determined by fitting the data to the Michaelis-Menten equation. […] This mixture was incubated for an additional 15 min at room temperature prior to an incubation with the FRET substrate for another 20 min at 30° C. Seven to eight concentrations of compound were assayed, and the resulting data were fitted to the integrated form of Morrison's equation for tight binding inhibition [J. F. Morrison, Biochim. Biophys. Acta, 185 pp. 269-286 (1969)]. All substrate and inhibitor data were fitted using Marquardt-Levenberg nonlinear regression with GraphPad Prism software.
# Five HCV NS3 serine protease domain proteins, including the genotype 1a and 1b wild-type (wt) proteases, and three mutants (A156S, D168V, and D168A) of the genotype 1b, were expressed and purified as described in Materials and Methods. The kcat and Km values of these NS3 proteases were determined using the KK-NS4A core peptide and the FRET substrate.
# Table 4 summary: Three HCV NS3 serine protease domain proteins of the Con1 strain, including the wild-type proteases and two mutants, A156T and A156V, were expressed and purified. The kcat and Km values of these NS3 proteases were determined using the KK-NS4A core peptide and the FRET substrate, and the average of two independent assays was shown.
# [6] = Table 1, FRET substrate, KK-NS4A core peptide
# [7] = Table 4, Con1 strain, average of two independent assays
molecule,measurement,setting,value
BILN 2061 [reference compound],IC50,[1],0.001 µM
same,IC50,[2],0.004 µM
same,IC50,A156S HCV replicon cells,0.007 µM
same,IC50,D168A HCV replicon cells,1.86 µM
same,IC50,D168V HCV replicon cells,5.09 µM and 4.65 µM
same,IC50,A156T HCV replicon cells,1.09 µM
same,decrease in sensitivity conferred by the mutation,A156V HCV replicon cells,more than 1.400 fold
same,IC50,A156V HCV replicon cells; 48-hour assay,5.76 µM
same,IC50,[3],~0.01 µM
same,IC50,[4],~3 µM
same,IC50 higher than against the series A replicon cells,[4],300 fold
D168A (1b) (protein) APITAYSQQTRGLLGCIITSLTGRDRNQVEGEVQVVSTATQSFLATCVNGVCWTVYHGAGSKTLAGPKGPITQMYTNVDQDLVGWQAPPGARSLTPCTCGSSDLYLVTRHADVIPVRRRGDSRGSLLSPRPVSYLKGSSGGPLLCPSGHAVGIFRAAVCTRGVAKAVAFVPVESMETTMRSHHHHHH,"change of substrate kinetic parameters (kcat, kcat/Km) compared with wild type",[5]; FRET substrate,less than 10 fold
same,Kcat,[5]; [6],0.3 s⁻¹
same,Km,[5]; [6],2 µM
A156T (protein) APITAYSQQTRGLLGCIITSLTGRDRNQVEGEVQVVSTATQSFLATCVNGVCWTVYHGAGSKTLAGPKGPITQMYTNVDQDLVGWQAPPGARSLTPCTCGSSDLYLVTRHADVIPVRRRGDSRGSLLSPRPVSYLKGSSGGPLLCPSGHAVGIFRTAVCTRGVAKAVDFVPVESMETTMRSHHHHHH,Kcat,[5]; [7],0.2 s − 1
same,Km,[5]; [7],1.3 µM
A156S (1b) (protein) APITAYSQQTRGLLGCIITSLTGRDRNQVEGEVQVVSTATQSFLATCVNGVCWTVYHGAGSKTLAGPKGPITQMYTNVDQDLVGWQAPPGARSLTPCTCGSSDLYLVTRHADVIPVRRRGDSRGSLLSPRPVSYLKGSSGGPLLCPSGHAVGIFRSAVCTRGVAKAVDFVPVESMETTMRSHHHHHH,Kcat,[5]; [6],0.6 s⁻¹
same,Km,[5]; [6],0.9 µM
"Wt (1b): wild-type HCV NS3 serine protease domain, genotype 1b (Con1 strain) (protein) APITAYSQQTRGLLGCIITSLTGRDRNQVEGEVQVVSTATQSFLATCVNGVCWTVYHGAGSKTLAGPKGPITQMYTNVDQDLVGWQAPPGARSLTPCTCGSSDLYLVTRHADVIPVRRRGDSRGSLLSPRPVSYLKGSSGGPLLCPSGHAVGIFRAAVCTRGVAKAVDFVPVESMETTMRSHHHHHH",Kcat,[5]; [6],1.0 s⁻¹
same,Km,[5]; [6],1.1 µM
same,Kcat,[5]; [7],1.0 s − 1
same,Km,[5]; [7],1.1 µM
A156V (protein) APITAYSQQTRGLLGCIITSLTGRDRNQVEGEVQVVSTATQSFLATCVNGVCWTVYHGAGSKTLAGPKGPITQMYTNVDQDLVGWQAPPGARSLTPCTCGSSDLYLVTRHADVIPVRRRGDSRGSLLSPRPVSYLKGSSGGPLLCPSGHAVGIFRVAVCTRGVAKAVDFVPVESMETTMRSHHHHHH,Kcat,[5]; [7],0.6 s − 1
same,Km,[5]; [7],2.6 µM
D168V (1b) (protein) APITAYSQQTRGLLGCIITSLTGRDRNQVEGEVQVVSTATQSFLATCVNGVCWTVYHGAGSKTLAGPKGPITQMYTNVDQDLVGWQAPPGARSLTPCTCGSSDLYLVTRHADVIPVRRRGDSRGSLLSPRPVSYLKGSSGGPLLCPSGHAVGIFRAAVCTRGVAKAVVFVPVESMETTMRSHHHHHH,Kcat,[5]; [6],0.6 s⁻¹
same,Km,[5]; [6],1.2 µM
